Like-named read-outs stand apart in the source and are kept apart here.
How the values were obtained:
[1] = 2-iminobiotin surface, values from Hytönen 2003, cited from earlier work
[2] = Differential scanning calorimetry of the avidin mutants; assay type: physicochemical; conditions: DSC, 100 mM Na-phosphate buffer pH 7.4
Protocol: In order to study the thermal stability of the purified avidin mutants, they were subjected to analysis by differential scanning calorimetry. A Nano II differential scanning calorimeter (Calorimetric Science Corporation, Provo, Utah) was used. […] The reference cell was filled with the same buffer that the sample proteins were dissolved in (100 mM Na-phosphate buffer pH 7.4). The thermograms were recorded as a function of temperature, between 25 and 130° C. at a temperature scan rate of 55.6° C./h. The baselines were subtracted and the transition midpoints (Tm) of the samples were calculated using proprietary software provided by the instrument manufacturer.

[3] = biotin cuvette; values from Hytönen 2003; cited from earlier work
[4] = Microparticle analysis, BF523-biotin binding of protein-coated particles before and after 95° C.; assay type: physicochemical; conditions: 30 minutes at 95° C., BF523-biotin added after treatment (iv)
Protocol: Before the analysis, 3.22 μm microparticles with COOH-group/0.852 nm2 (Bangs laboratories, Fishers, Ind., USA) were covalently coated with biotin-binding proteins. Microparticles (1*108 pcs) were washed twice with H20 by sequential centrifuging (5000 g; 3 min) and aspiration, and resuspended in 200 μl PB buffer (50 mM NaH2PO4-HCl, pH 3.0). A solution of biotin binding protein (50 μl, 1 mg/ml or 3 mg/ml, 50 mM Na-acetate pH 4.0) was added while vortexing. The suspension was incubated for 1 h (500 rpm; 23° C.). Particles were washed with PB and with MES buffer (50 mM, pH 5.5) and suspended in MES buffer (200 μl). […] After the last wash particles were suspended in 100 μl volume and concentration of particles was determined with Multisizer 3 Coulter Counter (Beckman Coulter, Fullerton, Calif., USA). […]
Microparticles (5*106 pcs) were suspended in 900 μl of assay buffer and aliquoted in […] PCR-tubes (i-v; 180 μl/aliquot). […] The samples were measured with ArcDia TPX PlateReader (ArcDia Ltd.) (Soini, E., Meltola, N. J., Soini, A. E., Soukka, J., Soini, J. T. & Hanninen, P. E. (2000) Biochem. Soc. Trans. 28, 70-74). […]
The fluorescence emission efficiencies of the BF523-biotin conjugate (200 nM) was determined before and after the incubation (30 min) at 95° C. […]

[5] = Differential scanning calorimetry of avidin and AVR4/5 forms; assay type: physicochemical
Protocol: The thermodynamics of the heat-induced unfolding of the proteins were studied using DSC. The transition midpoint of heat-induced denaturation (Tm) of the avidin and different AVR4/5 forms was studied using a Nano II differential scanning calorimeter (Calorimetric Sciences Corporation, Provo, Utah, USA). The reference cell was filled with buffer whereas the sample cell was filled with proteins dissolved in 50 mM sodium phosphate buffer, pH 7.0 containing 100 mM NaCl. Avidin and AVR4/5(C124S) were also analyzed in 50 mM Na-acetate pH 4.0 containing 100 mM NaCl. Furthermore, AVR4/5 was analyzed in the presence of 2-mercaptoethanol (0.4% v/v). The samples (1.6-9.6 μM) were analyzed both in the absence and presence of a three fold molar excess of biotin/subunit. All samples were degassed before being loaded into the DSC. The thermograms were recorded as a function of temperature; between 25 and 130° C. at a rate of 55.6° C./h (Gonzalez, M., Argarana, C. E. & Fidelio, G. D. (1999) Biomol. Eng. 16, 67-72; Nordlund, H. R., Laitinen, O. H., Uotila, S. T., Nyholm, T., Hytönen, V. P., Slotte, J. P. & Kulomaa, M. S. (2003) J. Biol. Chem. 278, 2479-2483). Data was analyzed using Microcal Origin 6.0 and Cpcalc 2.1 (Applied Thermodynamics, Hunt Valley, Md.). The change in heat capacity upon unfolding (ΔCp) was measured for avidin and AVR4/5(C124S) using DSC data from measurements in pH 4.0 and 7.0. ΔCp was then obtained from the slope of ΔH vs. Tm (Liu, Y. & Sturtevant, J. M. (1996) Biochemistry 35, 3059-3062).

[6] = 2-iminobiotin cuvette, cited from earlier work

Which kass [1] does the source give for “wt Avidin: Wild-type chicken avidin (SEQ ID NO 1), purified from chicken egg-white [reference compound]” here?
Its kass is “(5.5 ± 0.5) × 10^4 M^−1s^−1”.

What about the kdiss [1] of the same substance?
The kdiss was “(1.9 ± 1.4) × 10^−3 s^−1”.

And the Kd ([1]; read-out: Kd detected directly from the binding curves)?
The Kd was 34 nM.

And the Kd ([1]; read-out: Kd detected from the equilibrium response data)?
Its Kd is 22 nM.

What about the Tm ([2]; + biotin (biotin:avidin molar ratio 3:1)) of the same substance?
Its Tm is 118.2 ± 0.1 °C.

And the Tm ([2]; without biotin)?
The Tm was 85.5 ± 0.1 °C.

And the “Reversibility of binding to biotin” value [3]?
The value was 4 ± 2%.

What about the “original signal after heat treatment of coated particles” value [4] of the same substance?
The value was 9%.

And the “Tm at pH 4” value ([5]; 50 mM Na-acetate pH 4.0, 100 mM NaCl)?
Its value is 76.6±0.2 °C.

And the “DSC Tm(−biotin)” value ([5]; 50 mM sodium phosphate pH 7.0, 100 mM NaCl)?
The value was 83.5 ± 0.1 °C.

And the ΔTm ([5]; change in Tm upon addition of a three-fold molar excess of biotin)?
Its ΔTm is 33.5 °C.

And the ΔH of unfolding ([5]; sample without biotin)?
Its ΔH of unfolding is 78.6 ± 1.2 kcal/mol.

What about the “ΔCp (change in heat capacity upon unfolding)” value ([5]; slope of ΔH vs. Tm, DSC at pH 4.0 and 7.0) of the same substance?
The value was 0.00366 kcal/mol.

And the “DSC Tm (+biotin)” value ([5]; three-fold molar excess of biotin, pH 7.0)?
Its value is 117.0 ± 0.7 °C.

And the Kd ([6]; avidin values from Laitinen 2002 / Marttila 2000, read-out: Kd calculated from the equilibrium response data)?
The Kd was 17 nM.

What about the kass ([6]; avidin values from literature) of the same substance?
The kass was “(1.6 ± 0.7) × 10^4 M^−1 s^−1”.

What about the Kd ([6]; avidin values from literature, read-out: Kd calculated directly from the binding curves) of the same substance?
The Kd was 20 nM.
